Assay results reported in publication PMC5872055, “A Low-Cost Inkjet-Printed Aptamer-Based Electrochemical Biosensor for the Selective Detection of Lysozyme”.

Molecular target: lysozyme (chicken (egg white), UniProt P00698 19-147)
Assay: electrochemical impedance spectroscopy (Rct decrease); 0-20 ug/mL lysozyme, 15 min; sensor LOD 90 ng/mL (not a Kd); EIS: proteins in 50 mM phosphate buffer (PBS) pH 7.4, 15 min incubation, rinse with PBS and DI water, then ferro-/ferricyanide read-out; SWV: 10 mM PBS; temperature not stated
Settings: protein: commercial

lysozyme, sequence (P00698 19-147): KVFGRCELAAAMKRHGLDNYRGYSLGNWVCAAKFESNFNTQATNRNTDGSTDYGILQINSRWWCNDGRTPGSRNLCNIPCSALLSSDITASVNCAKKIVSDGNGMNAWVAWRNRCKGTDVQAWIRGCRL

## ATCAGGGCTAAAGAGTGCAGAGTTACTTAG (ssDNA) [anti-lysozyme aptamer (30-mer)]
  binding result: binds
